Measured values taken from publication PMC6504816.

Target: T1, YlxR (Bacillus subtilis) (UniProt P32728)
T1 sequence: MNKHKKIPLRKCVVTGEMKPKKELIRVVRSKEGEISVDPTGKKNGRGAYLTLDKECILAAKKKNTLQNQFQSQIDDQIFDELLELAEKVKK
Assay: EMSA
Conditions: 10 mM Tris-HCl pH 8.0, 100 mM KCl, 10 mM MgCl2, 1 mM DTT, 1 mM EDTA, 1 ug poly(dI-dC), 20 fmol probe in 20 ul, 15 min at 25 C; 6% native PAGE

| Sequence | binding |
| --- | --- |
| GGATATTCCATACCAATTCGATAAACTAGGAAGAGCACAAATAGGCATAAGCAGGGTTGAAAGGAGGTTTTGGTTC (double strand) [PthiL [-76/-1] M1] | binds more weakly |
| CTGGATGATATGGCAGAGTGGGTGTACCAAATTAAATAAAAGAACTATTTTTCTCTTTATACATTCACAGGCCGCCGAGATGTTCTCGACAGCCTTTTATTTTTGACTGCTGCGTGCAGACCCGCATCAAAAGAAATAATTTCAAAATCATTTGCTTCAG (double strand) [PtrmK [-295/-135] M1] | binds |
| GGATATTCCAGCAAAATTCGATAAACTAGGAAGAGCACAAATAGGCATAAGCAGGGTTGAAAGGAGGTTTTGGTTC (double strand) [PthiL [-76/-1] Wt] | binds |
| CTGGATGATATGGCAGAGTGGGTGTCAAAAATTAAATAAAAGAACTATTTTTCTCTTTATACATTCACAGGCCGCCGAGATGTTCTCGACAGCCTTTTATTTTTGACTGCTGCGTGCAGACCCGCATCAAAAGAAATAATTTCAAAATCATTTGCTTCAG (double strand) [PtrmK [-295/-135] Wt] | binds |
